Data taken from the supplement of paper PMC10567573.
± gives the standard deviation.

Assay: protein stability index of a GFP-peptide fusion (GPS, HEK-293T) (PSI 1-6); higher = more stable
Details: c terminus: a fixed tail appended
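Note: 24-mer peptide tiles fused after GFP, lentivirally expressed, FACS-sorted into six equal bins by GFP/DsRed ratio, decoded by Illumina sequencing, PSI is the read-weighted mean bin number.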

Sequence | protein stability index (treatment: DMSO) | protein stability index (treatment: MLN4924 1 uM, 8 h)
PGRGHTHAAQGGPLLCPGCQGQPQ [ELOA2] | 4.38 ± 0.26 | 4.47 ± 0.14
PGSMSEVQELCKQLHAKIDAAEEE [TNNI2] | 5.38 ± 0.27 | 5.36 ± 0.11
PGYLPYSPEPPSLYGALNPQYEFK [IRX6] | 2.87 ± 0.36 | 3.16 ± 0.33
PHTPGKPTSSCTSRSAPPGLQAPP [FOXJ1] | 4.42 ± 0.19 | 4.86 ± 0.18
PKDIYSSFGFPRTVKHIDAALSEE [MMP1] | 3.9 ± 0.29 | 4.04 ± 0.23
PKKPIGGNIIAHASTTRLYLRKGR [RAD51] | 3.79 ± 0.29 | 3.74 ± 0.17
PKQLYFSARQGELQKVLLMLVDGI [EHMT1] | 2.66 ± 0.48 | 2.35 ± 0.58
PKTGRISVPIDLQKVDQFDPFTVP [PRIM1] | 3.6 ± 0.33 | 3.34 ± 0.25
PKTVQQPTESEPVTINIQDLLSCS [MATN2] | 4.35 ± 0.17 | 4.32 ± 0.16
PKVEYVWRNIILMSLLHLGALYGI [SCD] | 3.26 ± 0.5 | 3.48 ± 0.06
PLAVENQAGGEGAGGELGISLNMC [PBXIP1] | 4.22 ± 0.25 | 4.12 ± 0.24
PLLCPSYQSYFKTIEELQQKILCS [KRT33B] | 2.56 ± 0.3 | 2.56 ± 0.17
PLLKDEGFAVKALWGRTQEEAEEL [GFOD1] | 5 ± 0.62 | 4.915 ± 0.038
PLSWAPCGPIAGSRQALSFEVPPC | 3.21 ± 0.29 | 3.07 ± 0.19
PLTSTQGLEHAAAGGSSGTTARER [FBF1] | 5.36 ± 0.24 | 5.33 ± 0.3
PMAADEGSAEKQAGEAHMAADGET [EHMT1] | 5.6 ± 0.17 | 5.66 ± 0.082
PMPVSQECFETLRGDERILSILRH [CHGA] | 3.29 ± 0.23 | 3.02 ± 0.46
PMVARYIRINPQSWFDNGSICMRM [CPXM2] | 2.82 ± 1.1 | 1.95 ± 0.38
PNGVQLSPAEDFVLVAETTMARIR [APMAP] | 3.21 ± 0.21 | 3.5 ± 0.22
PPAALESSDSANTTIEDEDAKARK [CAMK2B] | 5.65 ± 0.15 | 5.7 ± 0.13
PPARGPRMSYGGSTCHAYSNTRDR [RBMY1A1] | 4.1 ± 0.098 | 4.07 ± 0.12
PPDTVSRTGLEKAAAGAVGLERRD [SPDEF] | 5.04 ± 0.15 | 5.29 ± 0.39

Sequence | protein stability index (treatment: DMSO) | protein stability index (treatment: MLN4924 1 uM, 8 h)
PPGAEEPQAPPASRDEAALPELLL [RETREG3] | 5.25 ± 0.31 | 5.39 ± 0.17
PPGLPRVSAYVDTTADLDRKLSFS [SPATS1] | 3.79 ± 0.26 | 3.96 ± 0.23
PPKVKAEDGMQCLQLKETLATQEP [DLC1] | 5.3 ± 0.17 | 5.16 ± 0.2
PPLLGTFPRDHTSLALVQNGDVSA [ANKRD40] | 4.57 ± 0.21 | 4.4 ± 0.41
PPPPRSRGPPRGLRGGRGGSGGTR [RBMX] | 5.11 ± 0.5 | 4.96 ± 0.32
PPTVSQTPVIAATPVPTITANVTS [BRD3] | 4.83 ± 0.12 | 4.76 ± 0.18
PPVRPAGYLLSFHTPGGQNQEILL [TNXB] | 2.38 ± 0.29 | 2.38 ± 0.31
PQDQAGPGGAPRVASRNLFPKDTL [CLPTM1] | 4.41 ± 0.36 | 4.61 ± 0.28
PQELINYVQTVDFMRTDNTCVNLL [KLHL13] | 2.46 ± 0.35 | 2.51 ± 0.42
PQPLSFKEPPLLLGVLHPNTKLRQ [APMAP] | 3.48 ± 0.17 | 3.59 ± 0.2
PSGTPELEVPKPGQPSEPEHGPSP [CHIT1] | 5.52 ± 0.25 | 5.47 ± 0.18
PSLSPGAFSYSSSSRFSSSRLLGS [PRPH] | 3.29 ± 0.23 | 3.28 ± 0.16
PSRAKPPTEGAGSPAKASQASKLR [FBF1] | 5.16 ± 0.28 | 5.2 ± 0.2
PTESEPVTINIQDLLSCSNFAVQH [MATN2] | 3.56 ± 0.5 | 3.37 ± 0.43
PTFMIAVFLPIVVLIFKSILFLPC [STEAP1] | 3.22 ± 0.3 | 3.3 ± 0.46
PVPATAPSPAPAVAAAAAATTAAT [SNAP91] | 5.32 ± 0.16 | 5.25 ± 0.097
PYFKSNDVVCKNQDELRNRSVKVI [FAN1] | 3.78 ± 0.16 | 4.01 ± 0.33
QCSMPLHVAPLLAAAGLHASPMSA [NR2F2] | 2.58 ± 0.26 | 2.63 ± 0.24
QDLAFWYGPRWQEVIPYTPAMQRY [HMOX1] | 2.29 ± 0.2 | 2.36 ± 0.33
QEAFLVQEVVELPVTERQIEREHL [TBC1D10A] | 4.94 ± 0.25 | 4.71 ± 0.23
QEHKTDEMHTALMEACMDGHVEVA [ANKRD17] | 5.19 ± 0.4 | 5.31 ± 0.21
QEKKRKFLESTDSFNNELKRLCGL [SMARCE1] | 2.87 ± 0.41 | 3.14 ± 0.69

Sequence | protein stability index (treatment: DMSO) | protein stability index (treatment: MLN4924 1 uM, 8 h)
QFTSSSSMKGSCGIGGGIGGGSSR [KRT16] | 3.29 ± 0.26 | 3.48 ± 0.32
QGHLRRLRSRYSVASFKFDAGEVS [MYORG] | 2.93 ± 0.26 | 3.27 ± 0.33
QGLFFDMEAYLPKKNGLYLSLVLG [TMEM120A] | 2.67 ± 0.42 | 2.62 ± 0.23
QGMEVDLVTGLAIEEACYAQTIPT [AUH] | 3.73 ± 0.21 | 3.53 ± 0.2
QHLDPQGAQELLEFTIRDLQRLGE [INTS4] | 3.53 ± 0.4 | 3.81 ± 0.46
QHSVPLQLELRAGAERLDALLADE [TRADD] | 4.63 ± 0.31 | 4.62 ± 0.47
QICRAQGLETLFSKAQELGGAGRE [ZSWIM9] | 3.64 ± 0.23 | 3.66 ± 0.26
QIDQIKRHSNVVILTTSNITEKID [TRIP13] | 3.21 ± 0.28 | 3.4 ± 0.19
QIEKTTNREACRDLSGRRLRDVNH [SDE2] | 4.18 ± 0.24 | 4.11 ± 0.6
QKYDPDKDEWHKVFDLPESLGGIR [KLHL13] | 3.55 ± 0.23 | 3.93 ± 0.29
QLLLQFERLVVLDYIIRNTDRGND [PI4K2A] | 2.98 ± 0.47 | 2.64 ± 0.36
QLPPVVPVSKPGALRRSLSRSMSQ [TCAP] | 3.97 ± 0.13 | 3.96 ± 0.13
QLRLLQAPLQADLTEQVWKVQDAL [SCARA5] | 3.15 ± 0.28 | 3.12 ± 0.3
QNPEAIAAAAMYTFLPDNFSPAKP [MYORG] | 3.79 ± 0.15 | 3.86 ± 0.2
QNPQITQLKIAANPFAKGFRENGR [TBX6] | 3.33 ± 0.29 | 3.35 ± 0.46
QQLHARYVLNLLYETKKHLVQLPN [PPEF2] | 2.66 ± 0.35 | 2.32 ± 0.22
QRAPQLPTWWPLPTQVPAAEDYLT [SPAG8] | 3.12 ± 0.2 | 3.23 ± 0.21
QRIALRLGNGNDKKEMNKSDLNTN [KMT2E] | 4.78 ± 0.12 | 4.47 ± 0.28
QSGRDLQQYQSQAKQLFRKLNEQS [SEC22B] | 3.72 ± 0.29 | 3.83 ± 0.27
QSLTEDLEFRKSMYEEEINETRRK [LMNB1] | 4.99 ± 0.26 | 5.04 ± 0.18
QSVENCPEDLAQLEELIDMAVLEE [RPAIN] | 5.27 ± 0.15 | 5.27 ± 0.21
